From the nanobody polyreactivity screen of Harvey et al. (2022)

Assay: yeast display, Sf9 membrane polyspecificity reagent, FACS + sequencing; frameworks hold sequencing errors
Procedure, shortened: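 Sorting gates, low and high (top ~1%), were placed on anti-HA fluorescence to track expression and on streptavidin fluorescence to track reagent binding. A clone's polyreactivity label is taken from the gate it came out of. The reagent was 10% biotinylated, detergent-solubilized Sf9 membrane, applied for 1 hour at 4 °C to galactose-induced yeast display cells.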

Sequence | polyreactivity (PSR sort gate)
QVQLVESGRGLVQAGGSLRLSCAASGITFRYYAMGWYRPAPGKERELVAAITRGGRTNYADSVKGRFTISRDNAKNTVYLQMNSLKPEDTAVYYCATGRDSNFGNSYYYWGQGTQVTVSS | high polyreactivity
QVQLQESGGCLVLAGGSLRLSCAASGYIFDTCPMGWYRQAPGKEREFVASIDHGSNTYYADSVKGRFTISRDSAKNTVYLQMNSLKPEDTAVYYCAVRDDGSYTYGNWGQGTQVTVSS | high polyreactivity
QVQLVESGGGLVQAGGSLRLSCAASGRIFRYYAMGWYRQAPGKERELVASITRRGGSTYYADSVKGRFTISRDNAKNTVYLQMNSLKPEDTAVYYCVGDTYYNLGNYWGQGTQVTVSS | high polyreactivity
QVQLVESGGGLVQAGGSLRLSCAASGLIFGWYAMGWYRQAPGKERELVAGISGSGGITYYADSVKGRFTISRDNAKNTVYLQMNSLKPEDTAVYYCATAAASHKYGYWGQGTQVTVSS | low polyreactivity
QVQLVESGGGLVQAGGSLRLSCAASGFTFSRYAMGWYRQAPGKEREYVAAISWSGGSTYYADSVKGRFTISRDNAKNTVYLQMNSLKPEDTAVYNCNAGAQLLASQTRYDYWGQGTQVTVSS | low polyreactivity
QVQLVESGGGLVQAGGSLRLSCAASGSTFDANAMGWYRQAPGKERELVATISDGGSTNYADSVKGRFTISRDNAKNTVYLQMNSLKPEDTAVYYCAAVKLFLGLGYDYWGQGTQVTVSS | low polyreactivity
QVLLVESGGGLVQAGGSLRLSCAASGRTFYWYAMGWYRQAPGKERELVAGISSGGGTYYADSVKGRFTISRDNAKNTVYLQMNSLKPEDTAVYYCAAASENIWVWQEYIEYDYWGQGTQVTVSS | low polyreactivity
QVQLVESGGGLVQAGGSLSLICAASGRIFLRNDMGWYRQAPGKERELVAGISSDGSTYYADSVKGRFTISRDNAKNTVYLQMNSLKPEDTAVYYCAAERWGNPTDYQFWRPYDYWGQGTQVNVSS | low polyreactivity
QVQLVESGGGLVQAGGSLRLSCAASGITLKRYAMGWYRQAPGKERELVAAITGRGGGTNYADSVKGRFTISRDNAKNTVYLQMNSLKPEDTAVYYCTAATYGDYSNLGYGYWGQGTQVTVSS | high polyreactivity
QVQLVESGGGLVQAGGSLRLSCAASGITFQNYAMGWYRQSPGKERELVAAITRSGGRTYYADSVKGRFTISRDNAKNTVYLQINSLKPEDTAVYYCAFYGIGRPYWYDYWGQGTQVTVSS | high polyreactivity
QVQLVESGGGLVQAGGSLRLSCAASGFTFSLYAMGWYRQAPGKDRELVASISRSGGSTYYADSVKGRFTISRDNAKYTVYIQMYSLKPEDTAVYYCAARWRPYKYDSWGQGTQVTVSS | high polyreactivity
QVQLVESGGGLVQAGGSLRLSCAASGRIYARNAMGWYIQAPGKERELVAAITRGGSTYYADSVKGRFTISRDNAKNTVYLQMNSLKPEDTAVYYCAASYRGSTYKYYYWGQGTQVTVSS | high polyreactivity
QVQLVESGGGLVQAGGSLRLSCAASGRIFATNAMGWYRQAPGKERELVAIITRSAGRTYYADSVKGRFTISRDKAKNTVYLQMNSLKPEDTAVYYCNTVPRPFDRYGYWGQGTQVTVSS | low polyreactivity
QVQLVESGGGLVHAGGSLRLSCAASGRTFSAYAMGWYRQAPGKERELVAAISRSGGRTYYADSVKGRFTISRDNAKNTVYLQMNSLKPEDTAVYYCNALNLPDNQGTYDYWGQGTQVTVSS | high polyreactivity
QVKLVETGGGLVQAGGSLRLSCAASGRTFTPYTMGRYRQAPGKEREFVAAITFRGGSTYYADSVKGRFTISRDIAKNTVYLQMNSLKPEDTEVYFCNARGHGGWGTSMYYWGHGTQVTVSS | high polyreactivity
QVQLVESGGGLVQAGRSLRLSCAASGRTFPYNAMGWYRQAPGKERELVAAITWSGGSTYYADSVKGRFTISRDNAKNTVYLQMNSLKAEDTAVYYCNKDFPVFEYDYWGQGTQVTVSS | low polyreactivity
QVQLVESGGGLVQAGGSLRLSCAASGFIFWYYAIGWYRQAPGKERELVADISSGGSTNYADSVKGRFTISRDNAKNTVYLQMNSLKPEDTAVYYCADDTFRRDDYWGQGTQVTVSS | low polyreactivity
